Measured values as given in the supplement of paper PMC7125110.
± gives the standard error. Fewer inactive variants are shown than the library holds.

B1: glmS ribozyme (parent)
chain: AUAAAAGCGCCAGAACUACAGAAAUGUAGUUGACGAGGAGGAGGUUUAUCGAAUUUUCGGCGGAUGCCUCCAAA

Key:
Conditions in all cases: with glucosamine-6-phosphate
glucosamine-6-phosphate [1] = variants of: B1; assay: self-cleavage kobs at 40 uM GlcN6P; higher = faster cleavage; RNA array
How it was run: (§1)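 Tiles of sequenced MiSeq chips were imaged over ~14 h at 37 °C. On them, barcoded ribozyme variants had been transcribed in situ by E. coli RNA polymerase and were tracked via a hybridised Cy3 probe while glucosamine-6-phosphate (40 μM to 10 mM) in HEPES/KCl/Mg(OAc)2 buffer flowed in. Per-tile medians, normalised to baseline and to non-cleaving reference variants, were fit to one- or two-exponential decays for kobs, and weighted Michaelis–Menten fits gave kcat and KM.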

glucosamine-6-phosphate [2] = variants of: B1; assay: self-cleavage kobs at 160 uM GlcN6P; higher = faster cleavage; RNA array
How it was run: as §1

glucosamine-6-phosphate [3] = variants of: B1; assay: self-cleavage kobs at 640 uM GlcN6P; higher = faster cleavage; RNA array
How it was run: as §1

glucosamine-6-phosphate [4] = variants of: B1; assay: self-cleavage kobs at 10000 uM GlcN6P; higher = faster cleavage; RNA array
How it was run: as §1

glucosamine-6-phosphate [5] = variants of: B1; assay: self-cleavage kobs at 2500 uM GlcN6P; higher = faster cleavage; RNA array
How it was run: as §1

Variant	self-cleavage kobs at 40 uM GlcN6P (glucosamine-6-phosphate [1]) [s⁻¹]	self-cleavage kobs at 160 uM GlcN6P (glucosamine-6-phosphate [2]) [s⁻¹]	self-cleavage kobs at 640 uM GlcN6P (glucosamine-6-phosphate [3]) [s⁻¹]	self-cleavage kobs at 10000 uM GlcN6P (glucosamine-6-phosphate [4]) [s⁻¹]	self-cleavage kobs at 2500 uM GlcN6P (glucosamine-6-phosphate [5]) [s⁻¹]
G7A A48U U56G	< 1e-05	< 1e-05	< 1e-05	< 1e-05	
A36U U55G G63A C71A	< 1e-05				
C11A G66C	< 1e-05				< 1e-05
C10U G37C	< 1e-05		< 1e-05	< 1e-05	
A36G G62U	< 1e-05		< 1e-05	< 1e-05	< 1e-05
C10A A33C A64C	< 1e-05			< 1e-05	< 1e-05
A52U C61A	< 1e-05			< 1e-05	
C8G C50G A53G A64G	0.000149 ± 6.6e-05				
A14G G40A	0.000801 ± 0.00011	0.00119 ± 0.00039	0.0045 ± 0.00098	0.0666 ± 0.029	0.00484 ± 0.0011
G29U C34A C61U	< 1e-05		< 1e-05		
G41U G62U	< 1e-05	< 1e-05	< 1e-05	< 1e-05	< 1e-05
A14U G41A G44A G60A	< 1e-05				
G7U G37C A39C G62C	< 1e-05				
C16U A48U G62U	< 1e-05		< 1e-05	< 1e-05	
U31G G66A	0.000146 ± 2.4e-05		0.0011 ± 0.00039	0.00839 ± 0.0014	0.00151 ± 0.00042
A42U G66C	< 1e-05	< 1e-05			
C10U G29C G35A G44U C50A U55C A64U	< 1e-05			< 1e-05	
U49A G60C	< 1e-05		< 1e-05	< 1e-05	< 1e-05
A36U G44A	< 1e-05	< 1e-05	< 1e-05	< 1e-05	< 1e-05
G7U C10G A12U U65G C68G	7.58e-05 ± 2.2e-05			5.57e-05 ± 1.5e-05	
A12U G29A A39G A53U	0.000581 ± 0.00016			0.0117 ± 0.0041	
A12U A14U A53G	0.000135 ± 3.3e-05			0.00411 ± 0.00079	
G41C G43U	< 1e-05	< 1e-05	< 1e-05	< 1e-05	< 1e-05
G35A C50G U55A C61G	0.000205 ± 5.1e-05			0.000255 ± 4e-05	
A36C U47C	< 1e-05		< 1e-05		< 1e-05

Variant	self-cleavage kobs at 40 uM GlcN6P (glucosamine-6-phosphate [1]) [s⁻¹]	self-cleavage kobs at 160 uM GlcN6P (glucosamine-6-phosphate [2]) [s⁻¹]	self-cleavage kobs at 640 uM GlcN6P (glucosamine-6-phosphate [3]) [s⁻¹]	self-cleavage kobs at 10000 uM GlcN6P (glucosamine-6-phosphate [4]) [s⁻¹]	self-cleavage kobs at 2500 uM GlcN6P (glucosamine-6-phosphate [5]) [s⁻¹]
G41A C67G C70U	4.65e-05 ± 2e-05	0.000107 ± 3.4e-05	0.000188 ± 5.7e-05	0.00166 ± 0.00038	0.000826 ± 0.00023
G40C U54G	0.000126 ± 1.3e-05	0.000127 ± 3e-05	0.000766 ± 0.00015	0.00251 ± 0.00031	0.0025 ± 0.00059
A52U A53G C61U	< 1e-05				
G35A A64G C70G	< 1e-05			< 1e-05	
G29C G51U U55G	< 1e-05			< 1e-05	
A33U U46A U47G	< 1e-05				
U46A U49C	< 1e-05	< 1e-05	< 1e-05	< 1e-05	< 1e-05
U30G A52C G62U	< 1e-05			< 1e-05	
G59A C68U U69G	< 1e-05				
A6G A36U C50U	< 1e-05		< 1e-05	< 1e-05	
G32C G38C	< 1e-05	< 1e-05	< 1e-05		
A6G U54G U57C	< 1e-05			< 1e-05	
A14C U31A U54A	0.000186 ± 4.9e-05			0.0192 ± 0.0058	
G9U G51U	< 1e-05	< 1e-05	< 1e-05	< 1e-05	
A14C U49A G63A	< 1e-05				
A64U C68A	< 1e-05		< 1e-05	< 1e-05	
A14G A15U C67G	5.43e-05 ± 1.3e-05			0.0027 ± 0.00046	
G41A U57G	< 1e-05			< 1e-05	
C11G G29C U31G G37A C68G	< 1e-05				
C50G U57A G63U A64U	7.9e-05 ± 2.7e-05				
U46A G59U	< 1e-05	< 1e-05	< 1e-05	< 1e-05	
C10G U30G G40U	< 1e-05				
G37C G59A	< 1e-05	< 1e-05		< 1e-05	
G29U U31C A48C	< 1e-05			< 1e-05	
A42U G60U	< 1e-05	< 1e-05	< 1e-05		
